Target: human calmodulin wild-type (pIRES-DsRed-HisB-cMyc-CaM WT) (human) (UniProt P0DP23)

TRAM-34 sensitive whole-cell K+ current density at +60 mV, HEK293T cells co-transfected with SK4 R352D/R355D and CaM WT, 0.1 uM Cai (not different from background): 54 pA/pF
Substance: human SK4 R352D/R355D (from UniProt O15554 1-427) (natural protein)
